These binders were tested against T1, HLA-A*02 (human) (assay: UV-exchange ELISA (anti-b2m); yield 50%-75%).
T1 construct: Peptide-receptive MHC monomer made by UV cleavage of a UV-sensitive ligand and captured on streptavidin plates; also called HLA-A*02 MHC class I molecule; peptide-receptive MHC
Description: (§1) Candidate peptides for T cell based therapies according to the present invention were further tested for their MHC binding capacity (affinity). The individual peptide-MHC complexes were produced by UV-ligand exchange, where a UV-sensitive peptide is cleaved upon UV-irradiation, and exchanged with the peptide of interest as analyzed. Only peptide candidates that can effectively bind and stabilize the peptide-receptive MHC molecules prevent dissociation of the MHC complexes. To determine the yield of the exchange reaction, an ELISA was performed based on the detection of the light chain (β2m) of stabilized MHC complexes. The assay was performed as generally described in Rodenko et al. (Rodenko et al., 2006).
(§2) 96 well MAXISorp plates (NUNC) were coated over night with 2 ug/ml streptavidin in PBS at room temperature, washed 4× and blocked for 1 h at 37° C. in 2% BSA containing blocking buffer. […] Peptide-MHC monomers of the UV-exchange reaction were diluted 100 fold in blocking buffer. Samples were incubated for 1 h at 37° C., washed four times, incubated with 2 ug/ml HRP conjugated anti-β2m for 1 h at 37° C., washed again and detected with TMB solution that is stopped with […]. Absorption was measured at 450 nm.
For SLFGQEVYC, the peptide exchange yield was 50 to 75%. For ALDGHLYAI, the peptide exchange yield was 50 to 75%. Work on ILDNVKNLL yielded a peptide exchange yield of 50 to 75%. ALMAVVSGL gave a peptide exchange yield of 50 to 75%. KMQEDLVTL gave a peptide exchange yield of 50 to 75%. In the case of FLWNGEDSAL, the peptide exchange yield is reported as 50 to 75%. Work on FLWPKEVEL yielded a peptide exchange yield of 50 to 75%. Work on GIYDGILHSI yielded a peptide exchange yield of 50 to 75%. ALTKILAEL gave a peptide exchange yield of 50 to 75%. Work on SLLALPQDLQA yielded a peptide exchange yield of 50 to 75%. Binder STLDGSLHAV has a peptide exchange yield of 50 to 75%. Binder SIGDIFLKY has a peptide exchange yield of 50 to 75%. Work on FINPKGNWLL yielded a peptide exchange yield of 50 to 75%. For VLGPTPELV, the peptide exchange yield was 50 to 75%. For KVLGKIEKV, the peptide exchange yield was 50 to 75%. GRADALRVL showed a peptide exchange yield of 50 to 75%. GLYQAQVNL showed a peptide exchange yield of 50 to 75%. ILLDESNFNHFL was tested, and the peptide exchange yield was 50 to 75%. LLLPLLPPLSPSLG showed a peptide exchange yield of 50 to 75%. In the case of YVLNEEDLQKV, the peptide exchange yield is reported as 50 to 75%. For KLDGICWQV, the peptide exchange yield was 50 to 75%. Work on GLITVDIAL yielded a peptide exchange yield of 50 to 75%. Work on TLLGKQVTL yielded a peptide exchange yield of 50 to 75%. For GLFSQHFNL (also called DNMT3B-001), the peptide exchange yield was 50 to 75%. ILADEAFFSV gave a peptide exchange yield of 50 to 75%. With SLLTQPIFL the peptide exchange yield was 50 to 75%. FITDFYTTV was tested, and the peptide exchange yield was 50 to 75%. For LLLDGDFTL, the peptide exchange yield was 50 to 75%. LLDESKLTL was tested, and the peptide exchange yield was 50 to 75%. With ILSVVNSQL (also called KIAA0226L-002) the peptide exchange yield was 50 to 75%. TLYSMDLMKV gave a peptide exchange yield of 50 to 75%. ELLEYLPQL showed a peptide exchange yield of 50 to 75%. With SLLSHVIVA the peptide exchange yield was 50 to 75%. Work on FLDPAQRDL yielded a peptide exchange yield of 50 to 75%. VLSPFILTL gave a peptide exchange yield of 50 to 75%. For SLLPLVWKI, the peptide exchange yield was 50 to 75%. With ALYGKLLKL the peptide exchange yield was 50 to 75%. Binder TLCNKTFTA has a peptide exchange yield of 50 to 75%. IVLSTIASV showed a peptide exchange yield of 50 to 75%. With VLRDNIQGI the peptide exchange yield was 50 to 75%. LLWGHPRVA gave a peptide exchange yield of 50 to 75%. YLTEVFLHVV was tested, and the peptide exchange yield was 50 to 75%. KLGPFLLNA gave a peptide exchange yield of 50 to 75%. For KVFGDLDQV, the peptide exchange yield was 50 to 75%. For AIWKELISL, the peptide exchange yield was 50 to 75%. Binder ALINDILGELVKL has a peptide exchange yield of 50 to 75%. For LLWAGPVTA, the peptide exchange yield was 50 to 75%. ELLSSIFFL gave a peptide exchange yield of 50 to 75%. For FVLPLVVTL, the peptide exchange yield was 50 to 75%. GMIGFQVLL gave a peptide exchange yield of 50 to 75%. SLWFKPEEL was tested, and the peptide exchange yield was 50 to 75%. With ILHEHHIFL the peptide exchange yield was 50 to 75%. ELAEIVFKV was tested, and the peptide exchange yield was 50 to 75%. Binder YLVAHNLLL has a peptide exchange yield of 50 to 75%. Binder ILLNTEDLASL has a peptide exchange yield of 50 to 75%. SLAKHGIVAL showed a peptide exchange yield of 50 to 75%. FLEEEITRV gave a peptide exchange yield of 50 to 75%. With ALVSGGVAQA the peptide exchange yield was 50 to 75%. For SLFNQEVQI, the peptide exchange yield was 50 to 75%. In the case of GTFLEGVAK, the peptide exchange yield is reported as 50 to 75%. Binder TLDEYLTYL has a peptide exchange yield of 50 to 75%. Binder AAAAKVPEV has a peptide exchange yield of 50 to 75%. KVDGVVIQL was tested, and the peptide exchange yield was 50 to 75%. Work on TLLPTVLTL yielded a peptide exchange yield of 50 to 75%.

What follows are binders tested against T1, HLA-A*02 (assay: UV-exchange ELISA (anti-b2m); yield 20%-49%).
Description: as §1, §2
With GVLKVFLENV the peptide exchange yield was 20 to 49%. Binder FLGDYVENL has a peptide exchange yield of 20 to 49%. Binder PLWGKVFYL has a peptide exchange yield of 20 to 49%. With KTLDVFNIIL the peptide exchange yield was 20 to 49%.

Reference: patent publication US20170056486A1 (IMMATICS BIOTECHNOLOGIES, published 2017)
